Laboratory results from patent US20250154240A1, “ANTI-HUMAN CXCL1 ANTIBODY” (CHIOME BIOSCIENCE INC., priority 2022, published 2025).

Tests used:
MsCXCL1 = target: T1, MsCXCL1 (Mus musculus, UniProt P12850); experiment: FACS, inhibition of binding of APC-labeled MsCXCL1 to HEK293 cells forced to express HuCXCR2; assay type: cell-based; design: purchased PROTEINTECH; host or cells: CXCR2: transfected HEK293 cells; settings: APC-labeled ligand 10 μg/mL; HEK293 cells expressing HuCXCR2
T1 sequence (P12850 25-96): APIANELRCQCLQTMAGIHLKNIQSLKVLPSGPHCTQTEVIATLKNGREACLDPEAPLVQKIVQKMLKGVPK
Procedure: (§1) Chemokines are stabilized by directly binding to GAG on the cell surface and thereby allow efficient signal transduction to their receptors. […] Then, to evaluate whether Hu5A-5E11 inhibits the binding of CXCLs to cells, the binding of fluorescently labeled CXCLs to cells was measured as fluorescence intensity by flow cytometry in FACS. For this purpose, HEK293 cells forced to express HuCXCR2 were used. For use as HuCXCL1, 2, 3 and 5 and MsCXCL1, the proteins in above were labeled with APC.
(§2) The cultured cells were detached and washed with PBS, and then suspended at 5.0× 10^5 cells/mL in PBS containing 1% BSA (hereinafter referred to as the FACS buffer). Each of the APC-labeled ligands and Hu5A-5E11 were mixed at final concentrations of 10 μg/mL and 16.7 μg/mL, respectively, and reacted at room temperature for 30 minutes, and then added to the cell suspension and reacted on ice for 30 minutes. After washing with the FACS buffer, the cells were suspended again in PBS containing 1% 7-AAD, 0.5% BSA and 2 mM EDTA, followed by the above flow cytometry to measure fluorescence intensity.

HuCXCL3 [1] = target: T2, HuCXCL3 (Homo sapiens, UniProt P19876); experiment: ELISA, inhibition of binding of HuCXCL3 to GAG (heparin, heparan sulfate); assay type: biochemical; settings: antibody 0 to 10 μg/mL; biotin-labeled heparin or heparan sulfate 10 μg/mL
T2 construct: purchased PROTEINTECH
T2 sequence (P19876 35-107): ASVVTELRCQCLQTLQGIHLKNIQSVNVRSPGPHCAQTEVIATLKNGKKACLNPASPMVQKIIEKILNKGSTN
Procedure: (§3) Thus, the effect of Hu5A-5E11 on the binding of CXCLs to GAG was evaluated by ELISA assay using plates on which the antigen (HuCXCL1 protein) used for immunization or HuCXCL2, 3 and 5 and MsCXCL1 and 2 proteins had been directly immobilized. CXCLs other than HuCXCL1 were purchased from PROTEINTECH and used. Biotin-labeled heparan sulfate and heparin were purchased from PG Research and used.
(§4) To 96-well plates, phosphate-buffered saline (PBS) containing 3 μg/mL of HuCXCL1, 2, 3 or 5 or MsCXCL1 or 10 μg/mL of MsCXCL2 was added in a volume of 50 μL per well, and the plates were allowed to stand overnight at 4° C. After removal of the antigen solutions, PBS containing 0.05% Tween-20 (hereinafter referred to as the blocking solution) was added to each well for blocking reaction, and the plates were allowed to stand at room temperature for 30 minutes. […] TMB (Dako) was added as a chromogenic substrate solution to cause color development, and 1 N sulfuric acid was added to stop the reaction, followed by measurement of absorbance at 450 nm. The binding rate of CXCLs to GAG was calculated as a ratio relative to the absorbance measured in the absence of the antibody, which was set to 100%.

HuCXCL2 [2] = target: T3, HuCXCL2 (Homo sapiens, UniProt P19875); experiment: ELISA, inhibition of binding of HuCXCL2 to GAG (heparin, heparan sulfate); assay type: biochemical; settings: antibody 0 to 10 μg/mL; biotin-labeled heparin or heparan sulfate 10 μg/mL
T3 construct: purchased PROTEINTECH
T3 sequence (P19875 35-107): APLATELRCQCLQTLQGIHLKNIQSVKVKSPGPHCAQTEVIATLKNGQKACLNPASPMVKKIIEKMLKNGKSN
Procedure: as §3, §4

[3] = system: OCUM-12 gastric cancer cell line; experiment: Antitumor activity, treatment model with OCUM-12 orthotopic transplantation; assay type: in vivo, mouse; settings: compared to PBS
Procedure: OCUM-12 cells were cultured in D-MED medium (FUJIFILM Wako Pure Chemical Corporation, Japan) supplemented with 10% fetal bovine serum (hereinafter abbreviated as FBS; Sigma-Aldrich Corporation) and 1/100 volumes of a penicillin-streptomycin mixture (Nacalai Tesque, Inc., Japan). The cells to be transplanted were detached with 0.25% trypsin/0.02% EDTA (Thermo Fisher Scientific) and washed with PBS, and 4×10^5 cells per mouse were transplanted into the gastric wall of each mouse. On the day following the transplantation, the mice were randomized into groups (8 mice per group) and intraperitoneally administered with test antibodies at a dose of 400 μg/head. […] After 3 weeks had passed from the transplantation, the mice were sacrificed, and the short- and long-axis diameters of tumors formed in their gastric walls were each measured with a caliper. The tumor size was calculated according to the following: 1/2 short-axis diameter (mm)×1/2 long-axis diameter (mm)×3.14. […]
The dose-response relationship between antibody dose and in vivo antitumor activity or CXCR2 migration inhibitory activity was evaluated in a xenograft treatment model with OCUM-12 orthotopic transplantation. […] After 4 weeks had passed from the transplantation, the mice were sacrificed and evaluated.

HuCXCL5 = target: T4, HuCXCL5 (Homo sapiens, UniProt P42830); experiment: ELISA, inhibition of binding of HuCXCL5 to GAG (heparin, heparan sulfate); assay type: biochemical; design: purchased PROTEINTECH; settings: antibody 0 to 10 μg/mL; biotin-labeled heparin or heparan sulfate 10 μg/mL
T4 sequence (P42830 37-114): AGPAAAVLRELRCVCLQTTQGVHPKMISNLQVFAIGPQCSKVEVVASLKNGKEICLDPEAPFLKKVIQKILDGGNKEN
Procedure: as §3, §4

HuCXCL2 [4] = target: T3, HuCXCL2; experiment: FACS, inhibition of binding of APC-labeled HuCXCL2 to HEK293 cells forced to express HuCXCR2; assay type: cell-based; settings: APC-labeled ligand 10 μg/mL; HEK293 cells expressing HuCXCR2
Procedure: as §1, §2

HuCXCL3 [5] = target: T2, HuCXCL3; experiment: FACS, inhibition of binding of APC-labeled HuCXCL3 to HEK293 cells forced to express HuCXCR2; assay type: cell-based; settings: APC-labeled ligand 10 μg/mL; HEK293 cells expressing HuCXCR2
Procedure: as §1, §2

B1: Hu5A-5E11: humanized antibody VH1/VL1; VH SEQ ID NO: 76, VL SEQ ID NO: 78 (antibody, V domains shown)
VH: QVQLVQSGAEVKKPGSSVKVSCKASGYAFSDYWMNWVRQAPGQGLEWIGQIYPGSGDTNYNAKFKGKGTITADKSTSTAYMELSSLRSEDTAVYYCARERDYDVAMDYWGQGTTVTVSS
VL: DIQMTQSPSSLSASVGDRVTITCKASQDINKYIAWFQQKPGKAPKLVIHYTSILQPGVPSRFSGSGSGTDYTFTISSLQPEDIATYYCLQYDNLPWTFGGGTKVEIK
- Inhibitory activity against the binding of MsCXCL1 to cells (fluorescence intensity) (MsCXCL1): reduce the fluorescence intensity of the cells in an antibody concentration-dependent manner
- Inhibitory activity against the binding of HuCXCL3 to GAG (HuCXCL3 [1]): inhibit the binding of HuCXCL1, 2, 3 and 5 and MsCXCL1 to GAG in an antibody concentration-dependent manner
- Inhibitory activity against the binding of HuCXCL2 to GAG (HuCXCL2 [2]): inhibit the binding of HuCXCL1, 2, 3 and 5 and MsCXCL1 to GAG in an antibody concentration-dependent manner
- Dose significantly suppressing the tumor area [3]: ≥ 60 μg/head
- Inhibitory activity against the binding of HuCXCL5 to GAG (HuCXCL5): inhibit the binding of HuCXCL1, 2, 3 and 5 and MsCXCL1 to GAG in an antibody concentration-dependent manner
- Inhibitory activity against the binding of HuCXCL2 to cells (fluorescence intensity) (HuCXCL2 [4]): reduce the fluorescence intensity of the cells in an antibody concentration-dependent manner
- Inhibitory activity against the binding of HuCXCL3 to cells (fluorescence intensity) (HuCXCL3 [5]): reduce the fluorescence intensity of the cells in an antibody concentration-dependent manner
